From PMC7566454, “Sorcin is an early marker of neurodegeneration, Ca^2+ dysregulation and endoplasmic reticulum stress associated to neurodegenerative diseases” (Cell Death & Disease, 2020)
Each block holds one molecule with its values, some of them ahead of it.

Legend:
human Sorcin [1] = biological target: T1, human Sorcin (human, UniProt P30626 1-198); assay: SPR; FastStep (SensiQ Pioneer); human Sorcin amine-coupled to a COOH5 chip (2000 RU); peptides 1.56-100 μM; 20 mM Hepes pH 7.4, 150 mM NaCl, 0.005% P20, 100 μM CaCl2; best fits with 2 sites
T1 construct: Sorcin, human
T1 sequence (looked up): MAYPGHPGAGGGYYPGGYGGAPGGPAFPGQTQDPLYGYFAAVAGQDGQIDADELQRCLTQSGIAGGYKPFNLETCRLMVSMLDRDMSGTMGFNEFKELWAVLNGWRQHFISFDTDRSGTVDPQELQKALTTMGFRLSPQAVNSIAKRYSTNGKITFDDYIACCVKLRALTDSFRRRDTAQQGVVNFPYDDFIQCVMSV

human Sorcin [2] = biological target: T1, human Sorcin; assay: SPR; OneStep as a6 but in buffer with 1 mM EDTA (HBS-PE); conditions: both partners purified
human Sorcin [3] = biological target: T1, human Sorcin; assay: SPR; OneStep (SensiQ Pioneer); GST-Sigma-1 receptor (1-138) amine-coupled to a COOH5 chip (125 RU), signal on GST (80 RU) subtracted; Sorcin up to 5 μM; 20 mM Hepes pH 7.4, 150 mM NaCl, 0.005% P20 with CaCl2 (500 μM in the results, 100 μM in the methods); fit with 1 site; conditions: both partners purified

Kd (human Sorcin [2]): 12000 nM
Kd (human Sorcin [3]): 720 nM
B1: GST-Sigma-1 receptor (cytosolic domain, residues 1-138) (domain or fragment, UniProt Q99720 1-138, looked up)
chain: MQWAVGRRWAWAALLLAVAAVLTQVVWLWLGTQSFVFQREEIAQLARQYAGLDHELAFSRLIVELRRLHPGHVLPDEELQWVFVNAGGWMGAMCLLHASLSEYVLLFGTALGSRGHSGRYWAEISDTIISGTFHQWRE
notes: Sigma-1 receptor, 'cytosolic domain' residues 1-138, cloned in frame with GST in pGEX4T1; pGEX4T1 puts GST at the N-terminus (surmised); also called Sigma-1 receptor (1–138); source: E. coli BL21(DE3), purified (GSTrap HP)

Kd (human Sorcin [1]; both partners purified): 480 nM
B3: RyR2 peptide corresponding to calmodulin-binding site CaMBD3 (peptide)
peptide: ALRYNVLTLVRMLSLKSLKKQMKRMKKMTVK
notes: source: synthetic peptide (Biomatik, purity > 90%)

The remaining lines, values behind:

Molecule: RyR2 peptide corresponding to calmodulin-binding site CaMBD2
Kd (human Sorcin [1]): 120 nM

B2: RyR2 peptide corresponding to calmodulin-binding site CaMBD1 (peptide)
peptide: FRYNEVMQALNMSAALTARKTREFR
notes: as for B3
Kd (human Sorcin [1]; both partners purified): > 10000 nM
